Target: T1, γ-secretase cleavage of APP-C99 (CHAPS extracts of HeLa cell membranes) (Homo sapiens, UniProt P49768)
T1 construct: CHAPS extracts of HeLa cell membranes were incubated with the APP-C99flag-tagged substrate; endogenous in cells; host or cells: HeLa cell membranes (CHAPS extract)
Test: cell-free assay of in vitro production of amyloid peptides (Aβ) from APP-C99flag-tagged substrate, SDS-PAGE/western blotting
Assay type: biochemical
Settings: CHAPS extracts of HeLa cell membranes incubated with APP-C99flag-tagged substrate plus peptide; DMSO control; western blot with antibody recognizing Aβ (FIG. 6)
Text: FIG. 6: Peptides that mimic the binding domains in PS1 or APP inhibit the in vitro production of amyloid peptides (Aβ). The PS1-APP binding is mediated by the C-terminus of PS1 (and the first transmembrane domain of PS1) and part of the APP transmembrane region downstream of the γ-secretase cleavage site (and bearing the FAD-associated mutations affecting the γ-secretase cleavage). Peptides mimicking these domains were synthesized as such or with a conserved transmembrane region (TMR) or palmityol group (palm) attached to it. The amino acid sequence of the transmembrane region is NH2-[…]-COOH (SEQ ID NO:20) and the origin of the TMR is fully described in PCT International Publication WO 02/00882. CHAPS extracts of HeLa cell membranes were incubated with the APP-C99flag-tagged substrate in the presence of DMSO (control) or the different peptides at the concentrations indicated (peptide). γ-secretase inhibitor (10 μM) was included as a positive control for Aβ inhibition. After the reaction, samples were analyzed by SDS-PAGE followed by western blotting using an antibody recognizing Aβ. […]
Fixed amounts of recombinant APP-C99 are mixed with cleared cell extracts (for example extracted with Triton X100, CHAPS, CHAPSO or Nonidet p40) and incubated overnight at 37° C. or 4° C. De novo formed Aβ is monitored by SDS/PAGE combined with western blotting. […]

T1 sequence (Q96BI3 whole entry, other chains not shown): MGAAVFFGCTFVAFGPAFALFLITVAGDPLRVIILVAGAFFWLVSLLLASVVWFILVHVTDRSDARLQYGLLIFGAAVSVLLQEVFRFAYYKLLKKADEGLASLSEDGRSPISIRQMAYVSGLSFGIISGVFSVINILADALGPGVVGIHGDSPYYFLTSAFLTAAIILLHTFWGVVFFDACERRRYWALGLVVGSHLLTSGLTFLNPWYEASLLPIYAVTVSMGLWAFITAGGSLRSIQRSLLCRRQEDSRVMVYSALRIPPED
T1 sequence (Q92542 34-709, other chains not shown, further chain): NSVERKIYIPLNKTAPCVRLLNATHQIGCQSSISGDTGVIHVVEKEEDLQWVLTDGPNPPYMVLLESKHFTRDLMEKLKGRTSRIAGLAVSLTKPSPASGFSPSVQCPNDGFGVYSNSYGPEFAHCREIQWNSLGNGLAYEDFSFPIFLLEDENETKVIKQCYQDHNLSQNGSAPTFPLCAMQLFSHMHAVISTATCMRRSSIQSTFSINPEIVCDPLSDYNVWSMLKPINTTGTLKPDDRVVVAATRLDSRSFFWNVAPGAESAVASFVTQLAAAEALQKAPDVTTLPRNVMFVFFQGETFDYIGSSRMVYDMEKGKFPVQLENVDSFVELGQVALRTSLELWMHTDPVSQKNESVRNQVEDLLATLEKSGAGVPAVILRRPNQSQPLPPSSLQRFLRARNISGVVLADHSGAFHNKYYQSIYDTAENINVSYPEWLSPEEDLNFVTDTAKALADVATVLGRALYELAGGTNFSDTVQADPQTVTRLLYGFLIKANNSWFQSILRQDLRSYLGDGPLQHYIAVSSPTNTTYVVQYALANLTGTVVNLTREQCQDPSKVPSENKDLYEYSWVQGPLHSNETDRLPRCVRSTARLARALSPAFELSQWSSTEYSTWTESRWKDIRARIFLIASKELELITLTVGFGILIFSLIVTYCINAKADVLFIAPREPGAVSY
T1 sequence (Q9NZ42 whole entry, other chains not shown, further chain): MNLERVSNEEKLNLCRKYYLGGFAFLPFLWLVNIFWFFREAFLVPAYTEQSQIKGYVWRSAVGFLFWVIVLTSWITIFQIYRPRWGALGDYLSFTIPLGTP

Substance | inhibition of in vitro Aβ production
NH2-VVIATVIVITLVMLKKKQ-TMR-COOH [SEQ ID NO:7] | highest inhibition
NH2-ATVIVITLVMLK KKQ-TMR-COOH [SEQ ID NO:12] | highest inhibition

From patent US7198903B2, “Binding domains between presenilins and their substrates as targets for drug screening” (Vlaams Interuniversitair Instituut voor Biotechnologie VZW, priority 2001, dated 2007)
